# Measured values: article PMC9485057
# Columns and labels:
# [1] = biological target: FbxwD-FLAG (endogenous locus tagged) (D. discoideum); assay: co-IP; FbxwD-FLAG precipitated with anti-FLAG M2 magnetic beads from S21 lysates of phyA+ or phyA– vegetative or slug cells, 4 °C 1 h; Skp1 detected by Western blot (pAb UOK77), densitometry
# [2] = biological target: JcdI-FLAG (endogenous locus tagged) (D. discoideum) (UniProt Q55CL5); assay: co-IP; FLAG-JcdI or JcdI-FLAG precipitated with anti-FLAG M2 beads from NP-40 lysates of vegetative or slug cells, 4 °C 1 h, washed in 50 mM Tris-HCl pH 8.0, 150 mM NaCl, 0.2% NP-40; Skp1 detected by Western blot
# Sequence of UniProt Q55CL5 (Q55CL5 entry or part of it): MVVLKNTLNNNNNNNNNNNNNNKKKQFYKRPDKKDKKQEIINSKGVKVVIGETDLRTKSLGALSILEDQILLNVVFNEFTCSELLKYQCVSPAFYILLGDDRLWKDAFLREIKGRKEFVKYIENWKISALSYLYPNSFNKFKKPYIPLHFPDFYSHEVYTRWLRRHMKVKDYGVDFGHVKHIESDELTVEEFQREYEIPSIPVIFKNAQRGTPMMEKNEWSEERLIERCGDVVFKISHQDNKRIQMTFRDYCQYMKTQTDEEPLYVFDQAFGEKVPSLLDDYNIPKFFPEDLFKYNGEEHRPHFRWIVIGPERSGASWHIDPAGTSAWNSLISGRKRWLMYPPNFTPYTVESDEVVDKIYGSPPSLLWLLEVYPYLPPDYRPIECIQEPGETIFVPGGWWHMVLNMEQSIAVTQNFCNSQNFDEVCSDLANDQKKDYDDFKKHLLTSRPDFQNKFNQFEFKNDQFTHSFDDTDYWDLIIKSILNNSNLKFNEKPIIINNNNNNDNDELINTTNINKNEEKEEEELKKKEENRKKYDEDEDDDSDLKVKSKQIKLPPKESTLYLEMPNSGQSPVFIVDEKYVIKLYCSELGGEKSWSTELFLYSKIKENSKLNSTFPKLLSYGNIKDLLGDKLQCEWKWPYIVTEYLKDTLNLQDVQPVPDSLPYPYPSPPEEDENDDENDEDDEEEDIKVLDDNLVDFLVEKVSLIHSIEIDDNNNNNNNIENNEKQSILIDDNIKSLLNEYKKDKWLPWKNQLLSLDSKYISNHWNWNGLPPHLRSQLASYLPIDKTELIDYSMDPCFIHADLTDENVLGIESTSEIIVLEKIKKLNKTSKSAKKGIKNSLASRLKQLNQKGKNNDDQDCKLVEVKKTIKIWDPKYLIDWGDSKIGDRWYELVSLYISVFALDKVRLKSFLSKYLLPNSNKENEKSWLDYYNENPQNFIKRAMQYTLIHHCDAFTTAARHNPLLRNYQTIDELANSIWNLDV
substance,measurement,setting,value
"Skp1 (endogenous, from phyA+ / gnt1+ cells; hydroxylated and glycosylated) (from UniProt P52285 1-162) (natural protein)","fold more Skp1 co-IPed with FbxwD-FLAG, phyA+ versus phyA– slug cells",[1],4 fold
same,"fold more Skp1 co-IPed with FbxwD-FLAG, phyA+ versus phyA– vegetative cells",[1],2.5 fold
same,"fold more Skp1 (Skp1:JcdI ratio) co-IPed with JcdI-FLAG, gnt1+ versus gnt1– vegetative cells",[2],2 fold
same,"fold preferential interaction with JcdI-FLAG, gnt1+ versus gnt1– slug cells",[2],2 fold
